Measured values reported in PMC13214397, “De novo biosynthesis of alpinetin enhanced by directed evolution of 5-O-methyltransferase” (Microbial Cell Factories, 2026).

How the values were obtained:
[1] = substrate: O=C1C[C@@H](c2ccccc2)Oc2cc(O)cc(O)c21; assay: initial rates of alpinetin formation by HPLC, Michaelis-Menten fit; format: biochemical, Streptomyces avermitilis; conditions: 2 mM SAM (fixed), 2 mM Mg2+, 50 uM enzyme, Tris-HCl pH 7.5, 37 °C, apparent initial velocities
Excerpt: initial rates of alpinetin formation by HPLC, Michaelis-Menten fit on StrAOMT | we performed steady-state kinetic assays for StrAOMT wild-type and StrAOMT I41L/R171W/K212R

[2] = substrate: O=C1C[C@@H](c2ccccc2)Oc2cc(O)cc(O)c21; assay: as above; format: biochemical, Streptomyces avermitilis; conditions: 2 mM SAM (fixed), 2 mM Mg2+, 50 uM enzyme, Tris-HCl pH 7.5, 37 °C, apparent initial velocities; remark: listed apart in the source
Excerpt: initial rates of alpinetin formation by HPLC, Michaelis-Menten fit on StrAOMT | KM of StrAOMT wild type is twice that of the StrAOMT triple mutant

Protein	Km [1] [µM]	kcat [1] [s⁻¹]	Km [2] [µM]	kcat [2] [s⁻¹]
StrAOMT (Streptomyces avermitilis MA-4680 = NBRC 14893) (protein, recombinant from pET21b in E. coli BL21(DE3), codon-optimized) MSESQQLWDDVDDYFTTLLAPEDEALTAALRDSDAAGLPHINVAPNQGKLLQLLAEIQGARRILEIGTLGGYSTIWLGRALPRDGRLISFEYDAKHAEVARRNLARAGLDGISEVRVGPALESLPKLADERPEPFDLVFIDADKVNNPHYVEWALKLTRPGSLIVVDNVVRGGGVTDAGSTDPSVRGTRSALELIAEHPKLSGTAVQTVGSKGYDGFALARVLP	313.2	2.83e-05	–	–
StrAOMT (Streptomyces avermitilis MA-4680 = NBRC 14893; I41L/K212R/R171W) (protein, recombinant from pET21b in E. coli BL21(DE3), codon-optimized) MSESQQLWDDVDDYFTTLLAPEDEALTAALRDSDAAGLPHLNVAPNQGKLLQLLAEIQGARRILEIGTLGGYSTIWLGRALPRDGRLISFEYDAKHAEVARRNLARAGLDGISEVRVGPALESLPKLADERPEPFDLVFIDADKVNNPHYVEWALKLTRPGSLIVVDNVVWGGGVTDAGSTDPSVRGTRSALELIAEHPKLSGTAVQTVGSRGYDGFALARVLP	–	–	156.4	9.33e-05
